Measured values published in patent US7193044.
Non-standard residues stand in square brackets, D forms with d. No end group written: not given here. pS = N[C@@H](COP(=O)(O)O)C(=O)O

Biological target: Recombinant Bcl-XL tagged with the glutathione S-transferase (GST) moiety [GST: P08515]
Test: competition ELISA: peptide against immobilised BAK BH3 peptide for GST-Bcl-XL

Sequence of Recombinant Bcl-XL tagged with the glutathione S-transferase (GST) moiety [GST: P08515] (Q07817 whole entry): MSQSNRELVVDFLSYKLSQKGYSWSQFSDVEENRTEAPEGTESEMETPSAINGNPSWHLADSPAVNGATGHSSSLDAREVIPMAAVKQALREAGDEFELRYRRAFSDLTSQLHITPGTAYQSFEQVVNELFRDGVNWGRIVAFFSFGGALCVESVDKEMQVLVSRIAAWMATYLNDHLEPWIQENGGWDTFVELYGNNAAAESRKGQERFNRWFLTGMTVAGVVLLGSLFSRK

fold reduction of affinity against the unphosphorylated BAD BH3 peptide: > 100 fold
Binder: AAQRYGRELRRM[pS]DEFEGSFKGLPRP [Synthetic BAD BH3 peptide (residues 143-168) phosphorylated on Ser155]
